PMC7560827, “Immunodominant proteins P1 and P40/P90 from human pathogen Mycoplasma pneumoniae” (Nature Communications, 2020)

T1: P90N polypeptide (Ala446 to the C-end of P40/P90N) (Mycoplasma pneumoniae, UniProt Q50341 446-1003)
T1 construct: source: E. coli B834 (DE3), cleavage product in purified P40/P90N samples
T1 sequence: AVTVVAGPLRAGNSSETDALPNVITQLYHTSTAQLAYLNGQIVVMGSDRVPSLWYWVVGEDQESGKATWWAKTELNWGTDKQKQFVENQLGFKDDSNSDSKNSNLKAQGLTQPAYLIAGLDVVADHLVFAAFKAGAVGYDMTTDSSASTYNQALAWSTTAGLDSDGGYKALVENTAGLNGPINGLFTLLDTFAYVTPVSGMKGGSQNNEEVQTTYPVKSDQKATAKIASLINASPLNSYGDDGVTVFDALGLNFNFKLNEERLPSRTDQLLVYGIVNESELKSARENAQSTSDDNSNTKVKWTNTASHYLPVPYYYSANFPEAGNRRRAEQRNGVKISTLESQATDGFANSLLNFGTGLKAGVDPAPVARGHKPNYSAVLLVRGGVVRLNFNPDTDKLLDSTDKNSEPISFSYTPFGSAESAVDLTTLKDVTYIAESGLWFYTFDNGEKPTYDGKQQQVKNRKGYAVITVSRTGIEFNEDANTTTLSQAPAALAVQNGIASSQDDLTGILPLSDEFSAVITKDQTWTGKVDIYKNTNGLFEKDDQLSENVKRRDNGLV

B1: P1 extracellular region (residues Thr29-Asp1521) (domain or fragment)
chain: TVVGHFTSTTTTLKRQQFSYTRPDEVALRHTNAINPRLTPWTYRNTSFSSLPLTGENPGAWALVRDNSAKGITAGSGSQQTTYDPTRTEAALTASTTFALRRYDLAGRALYDLDFSKLNPQTPTRDQTGQITFNPFGGFGLSGAAPQQWNEVKNKVPVEVAQDPSNPYRFAVLLVPRSVVYYEQLQRGLGLPQQRTESGQNTSTTGAMFGLKVKNAEADTAKSNEKLQGAEATGSSTTSGSGQSTQRGGSSGDTKVKALKIEVKKKSDSEDNGQLQLEKNDLANAPIKRSEESGQSVQLKADDFGTALSSSGSGGNSNPGSPTPWRPWLATEQIHKDLPKWSASILILYDAPYARNRTAIDRVDHLDPKAMTANYPPSWRTPKWNHHGLWDWKARDVLLQTTGFFNPRRHPEWFDGGQTVADNEKTGFDVDNSENTKQGFQKEADSDKSAPIALPFEAYFANIGNLTWFGQALLVFGGNGHVTKSAHTAPLSIGVFRVRYNATGTSATVTGWPYALLFSGMVNKQTDGLKDLPFNNNRWFEYVPRMAVAGAKFVGRELVLAGTITMGDTATVPRLLYDELESNLNLVAQGQGLLREDLQLFTPYGWANRPDLPIGAWSSSSSSSHNAPYYFHNNPDWQDRPIQNVVDAFIKPWEDKNGKDDAKYIYPYRYSGMWAWQVYNWSNKLTDQPLSADFVNENAYQPNSLFAAILNPELLAALPDKVKYGKENEFAANEYERFNQKLTVAPTQGTNWSHFSPTLSRFSTGFNLVGSVLDQVLDYVPWIGNGYRYGNNHRGVDDITAPQTSAGSSSGISTNTSGSRSFLPTFSNIGVGLKANVQATLGGSQTMITGGSPRRTLDQANLQLWTGAGWRNDKASSGQSDENHTKFTSATGMDQQGQSGTSAGNPDSLKQDNISKSGDSLTTQDGNAIDQQEATNYTNLPPNLTPTADWPNALSFTNKNNAQRAQLFLRGLLGSIPVLVNRSGSDSNKFQATDQKWSYTDLHSDQTKLNLPAYGEVNGLLNPALVETYFGNTRAGGSGSNTTSSPGIGFKIPEQNNDSKATLITPGLAWTPQDVGNLVVSGTTVSFQLGGWLVTFTDFVKPRAGYLGLQLTGLDASDATQRALIWAPRPWAAFRGSWVNRLGRVESVWDLKGVWADQAQSDSQGSTTTATRNALPEHPNALAFQVSVVEASAYKPNTSSGQTQSTNSSPYLHLVKPKKVTQSDKLDDDLKNLLDPNQVRTKLRQSFGTDHSTQPQPQSLKTTTPVFGTSSGNLSSVLSGGGAGGGSSGSGQSGVDLSPVEKVSGWLVGQLPSTSDGNTSSTNNLAPNTNTGNDVVGVGRLSESNAAKMNDDVDGIVRTPLAELLDGEGQTADTGPQSVKFKSPDQIDFNRLFTHPVTDLFDPVTMLVYDQYIPLFIDIPASVNPKMVRLKVLSFDTNEQSLGLRLEFFKPDQDTQPNNNVQVNPNNGDFLPLLTASSQGPQTLFSPFNQWPD
notes: source: E. coli B834 (DE3), purified (HisTrap, Superdex 200)
B2: P40 polypeptide (from the N-end of P40/P90N to Arg445) (domain or fragment)
chain: SLANTYLLQDHNTLTPYTPFTTPLNGGLDVVRAAHLHPSYELVDWKRVGDTKLVALVRSALVRVKFQDTTSSDQSNTNQNALSFDTQESQKALNGSQSGSSDTSGSNSQDFASYVLIFKAAPRATWVFERKIKLALPYVKQESQGSGDQGSNGKGSLYKTLQDLLVEQPVTPYTPNAGLARVNGVAQDTVHFGSGQESSWNSQRSQKGLKNNPGPKAVTGFKLDKGRAYRKLNESWPVYEPLDSTKEGKGKDESSWKNSEKTTAENDAPLVGMVGSGAAGSASSLQGNGSNSSGLKSLLRSAPVSVPPSSTSNQTLSLSNPAPVGPQAVVSQPAGGATAAVSVNRTASDTATFSKYLNTAQALHQMGVIVPGLEKWGGNNGTGVVASRQDATSTNLPHAAGASQTGLGTGSPREPALTATSQR
notes: source: E. coli B834 (DE3), cleavage product in purified P40/P90N samples

Tests used:
Details in all cases: both partners purified
[1] = target: P40/P90N (short construct of P40/P90, residues Ser23-Val1003) (Mycoplasma pneumoniae, UniProt Q50341 23-1003); assay: SEC
[2] = target: P40/P90 long construct (residues 23-1114) (Mycoplasma pneumoniae, UniProt Q50341 23-1114); assay: SEC
[3] = target: T1, P90N polypeptide (Ala446 to the C-end …); assay: SEC-MALS

| Binder | binding result [1] | binding result [2] | binding result [3] |
| --- | --- | --- | --- |
| B1 | binds | binds | – |
| B2 | – | – | binds |
